From the supplement of paper PMC7877785
± gives the uncertainty stated by the source.

Experiment: self-splicing fitness, log relative to wild type (ln ratio); higher = more splicing; Tetrahymena group I intron in knt gene, E. coli kanamycin selection, DiMSum; sequences stand for … in CUCUCU…GGAGGGAAAAGUUAUCAGGCAUGCACCUGGUAGCUAGUCUUUAAACCAAUAGAUUGCAUCGGUUUAAAAGGCAAGACCGUCAAAUUGCGGGAAAGGGGUCAACAGCCGUUCAGUACCAAGUCUCAGGGGAAACUUUGAGAUGGCCUUGCAAAGGGUAUGGUAAUAAGCUGACGGACAUGGUCCUAACCACGCAGCCAAGUCCUAAGUCAACAGAUCUUCUGUUGAUAUGGAUGCAGUUCACAGACUAAAUGUCGGUCGGGGAAGAUGUAUUCUUCUCAUAAGAUAUAGUCGGACCUCUCCUUAAUGGGAGCUAGCGGAUGAAGUGAUGCAACACUGGAGCCGCUGGGAACUAAUUUGUAUGCGAAAGUAUAUUGAUUAGUUUUGGAGUACUCGUGGUCG
Procedure, shortened: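 Six replicate transformations of E. coli BL21(DE3) with a pET-22b(+) library were grown overnight at 37°C or 30°C. The library randomised all eight P1ex-region intron nucleotides, the intron lying in the knt kanamycin-resistance gene, and plates were LB agar with or without 25 μg/mL kanamycin plus 100 μg/mL carbenicillin, 50 μM IPTG and 0.2% rhamnose. Pooled colonies were amplicon-sequenced on an Illumina HiSeq 2500, and fitness is the DiMSum error-weighted combination of wild-type-normalised replicate fold changes, kanamycin versus none.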

| Sequence | self-splicing fitness (ln) (30 °C) | self-splicing fitness (ln) (37 °C) |
| --- | --- | --- |
| UACUAGCAAUAUUACGCCUC | -2.28 ± 0.24 | -1.78 ± 0.28 |
| UACUAGCAAUAUUACGCUAA | -1.31 ± 0.14 | -0.697 ± 0.1 |
| UACUAGCAAUAUUACGCUAU | -2.8 ± 0.21 | -1.32 ± 0.16 |
| UACUAGCAAUAUUACGCUUA | -1.38 ± 0.11 | -0.588 ± 0.11 |
| UACUAGCAAUAUUACGGACG | -0.258 ± 0.098 | 0.0809 ± 0.12 |
| UACUAGCAAUAUUACGGAGG | -2.77 ± 0.17 | -1.28 ± 0.13 |
| UACUAGCAAUAUUACGGCCG | 0.508 ± 0.14 | 0.00712 ± 0.17 |
| UACUAGCAAUAUUACGUCAG | -1.72 ± 0.2 | -1.43 ± 0.21 |
| UACUAGCAAUAUUACGUCGU | -2.15 ± 0.16 | -1.96 ± 0.18 |
| UACUAGCAAUAUUACGUGAC | -2.29 ± 0.13 | -1.93 ± 0.26 |
| UACUAGCAAUAUUACGUGGG | -3.32 ± 0.19 | -2.46 ± 0.18 |
| UACUAGCAAUAUUACGUUCA | -0.586 ± 0.08 | -0.193 ± 0.09 |
| UAGAAGCAAUAUUACGAACG | -0.0437 ± 0.11 | 0.576 ± 0.14 |
| UAGAAGCAAUAUUACGAAGC | – | -2.2 ± 0.24 |
| UAGAAGCAAUAUUACGAGGU | – | -2.14 ± 0.2 |
| UAGAAGCAAUAUUACGCAAG | -2.33 ± 0.2 | -0.64 ± 0.17 |
| UAGAAGCAAUAUUACGCAGC | -4.25 ± 0.46 | -2.93 ± 0.31 |
| UAGAAGCAAUAUUACGCAUU | -2.41 ± 0.29 | -2.59 ± 0.3 |
| UAGAAGCAAUAUUACGCUCU | -2.53 ± 0.2 | -2.75 ± 0.32 |
| UAGAAGCAAUAUUACGCUUA | -1.9 ± 0.15 | -0.832 ± 0.14 |
| UAGAAGCAAUAUUACGGACC | -2 ± 0.4 | -0.433 ± 0.34 |
| UAGAAGCAAUAUUACGGAGA | -3.26 ± 0.39 | -2.46 ± 0.26 |
| UAGAAGCAAUAUUACGGCCU | -0.838 ± 0.12 | -1.15 ± 0.15 |
| UAGAAGCAAUAUUACGGGUA | -1.02 ± 0.16 | -0.329 ± 0.14 |
| UAGAAGCAAUAUUACGGUAA | -1.64 ± 0.091 | -0.669 ± 0.073 |
| UAGAAGCAAUAUUACGGUCG | -0.229 ± 0.1 | 0.153 ± 0.14 |

| Sequence | self-splicing fitness (ln) (30 °C) | self-splicing fitness (ln) (37 °C) |
| --- | --- | --- |
| UAGAAGCAAUAUUACGUAAG | -2.31 ± 0.13 | -1.3 ± 0.16 |
| UAGAAGCAAUAUUACGUCAG | -0.574 ± 0.078 | -0.0756 ± 0.092 |
| UAGAAGCAAUAUUACGUCAU | -2.84 ± 0.2 | -1.99 ± 0.15 |
| UAGAAGCAAUAUUACGUCCA | -0.0908 ± 0.069 | 0.309 ± 0.1 |
| UAGAAGCAAUAUUACGUCGA | -1.61 ± 0.14 | -0.578 ± 0.14 |
| UAGAAGCAAUAUUACGUGAA | -2.05 ± 0.07 | -1.5 ± 0.092 |
| UAGAAGCAAUAUUACGUGGG | -3.09 ± 0.18 | -2 ± 0.19 |
| UAGAAGCAAUAUUACGUGUG | -0.994 ± 0.069 | -0.74 ± 0.084 |
| UAGCAGCAAUAUUACGAAAU | -1.96 ± 0.24 | -1.66 ± 0.28 |
| UAGCAGCAAUAUUACGACAC | – | -2.15 ± 0.33 |
| UAGCAGCAAUAUUACGACAG | -0.896 ± 0.1 | -0.68 ± 0.13 |
| UAGCAGCAAUAUUACGACGC | -3.94 ± 0.31 | -1.82 ± 0.19 |
| UAGCAGCAAUAUUACGAGCU | -1.5 ± 0.13 | -0.893 ± 0.14 |
| UAGCAGCAAUAUUACGAUAU | -2.42 ± 0.15 | -2.98 ± 0.19 |
| UAGCAGCAAUAUUACGAUCU | -1.92 ± 0.081 | -1.08 ± 0.077 |
| UAGCAGCAAUAUUACGCACG | -0.945 ± 0.13 | -0.318 ± 0.14 |
| UAGCAGCAAUAUUACGCCAG | -1.46 ± 0.13 | -0.751 ± 0.19 |
| UAGCAGCAAUAUUACGCCCA | -0.744 ± 0.3 | 0.445 ± 0.47 |
| UAGCAGCAAUAUUACGGAAA | -1.82 ± 0.17 | -1.81 ± 0.29 |
| UAGCAGCAAUAUUACGGACU | -1.07 ± 0.1 | -0.713 ± 0.15 |
| UAGCAGCAAUAUUACGGCGC | -2.08 ± 0.23 | 0.611 ± 0.23 |
| UAGCAGCAAUAUUACGGUCC | -3.66 ± 0.26 | -2.03 ± 0.24 |
| UAGCAGCAAUAUUACGGUUA | -0.0652 ± 0.056 | -0.181 ± 0.064 |
| UAGCAGCAAUAUUACGUAAC | -3.52 ± 0.19 | -2.42 ± 0.21 |
| UAGCAGCAAUAUUACGUCGA | -1.12 ± 0.071 | -0.528 ± 0.082 |
| UAGCAGCAAUAUUACGUGGA | -2.16 ± 0.12 | -1.46 ± 0.11 |

| Sequence | self-splicing fitness (ln) (30 °C) | self-splicing fitness (ln) (37 °C) |
| --- | --- | --- |
| UAGCAGCAAUAUUACGUUAU | -3.74 ± 0.23 | -2.92 ± 0.24 |
| UAGGAGCAAUAUUACGAAAA | -3.01 ± 0.45 | -1.65 ± 0.41 |
| UAGGAGCAAUAUUACGAACA | -2.08 ± 0.29 | – |
| UAGGAGCAAUAUUACGAAGC | -4.41 ± 0.33 | -1.44 ± 0.26 |
| UAGGAGCAAUAUUACGACAU | -3.83 ± 0.039 | -2.8 ± 0.047 |
| UAGGAGCAAUAUUACGACGU | – | -1.9 ± 0.38 |
| UAGGAGCAAUAUUACGAUAC | -4.56 ± 0.32 | -1.86 ± 0.28 |
| UAGGAGCAAUAUUACGAUGG | -3.36 ± 0.28 | -1.4 ± 0.24 |
| UAGGAGCAAUAUUACGCAGG | -2 ± 0.21 | – |
| UAGGAGCAAUAUUACGCGUA | -1.12 ± 0.15 | -0.31 ± 0.12 |
| UAGGAGCAAUAUUACGGCGG | -2.34 ± 0.24 | -0.013 ± 0.26 |
| UAGGAGCAAUAUUACGGGCA | -2.72 ± 0.26 | -2.63 ± 0.39 |
| UAGGAGCAAUAUUACGGGUG | -2.74 ± 0.27 | -1.14 ± 0.26 |
| UAGGAGCAAUAUUACGGUAU | -2.93 ± 0.36 | -2.66 ± 0.3 |
| UAGGAGCAAUAUUACGGUCU | -1.36 ± 0.37 | – |
| UAGGAGCAAUAUUACGUGAG | -2.42 ± 0.14 | -1.55 ± 0.14 |
| UAGUAGCAAUAUUACGACCC | -0.998 ± 0.35 | -1.28 ± 0.43 |
| UAGUAGCAAUAUUACGCAAA | -3.4 ± 0.3 | -2.28 ± 0.2 |
| UAGUAGCAAUAUUACGCACA | -1.2 ± 0.1 | -0.493 ± 0.12 |
| UAGUAGCAAUAUUACGCACU | -0.737 ± 0.11 | -0.331 ± 0.12 |
| UAGUAGCAAUAUUACGCAGC | -2.96 ± 0.47 | – |
| UAGUAGCAAUAUUACGCCCA | 0.0306 ± 0.38 | – |
| UAGUAGCAAUAUUACGCCUG | -0.198 ± 0.12 | -0.437 ± 0.13 |
| UAGUAGCAAUAUUACGCGAG | -1.57 ± 0.12 | -0.941 ± 0.17 |
| UAGUAGCAAUAUUACGCUCG | 0.127 ± 0.15 | 0.103 ± 0.19 |
| UAGUAGCAAUAUUACGGAGU | -4.27 ± 0.28 | -2.62 ± 0.16 |
